Measurements published in publication PMC3386633.

Experiments:
[1] = biological target: porcine stomach mucin (porcine); test: SPR; PSM coupled to a CM5 chip (5800 RU), HOL-18 as analyte in HBS buffer, 20 uL/min, 25 °C, BIAcore 3000, 1:1 model, BIAevaluation 3.0; bound lectin removed with 200 mM D-GlcNAc
[2] = biological target: HOL-18, 18 kDa chitotriose-binding lectin from Halichondria okadai (Halichondria okadai); test: SDS-PAGE after timed heat treatment; purified lectin in sample buffer (0.2% SDS, with or without 2% 2-mercaptoethanol) heated at 70 °C for 5-60 min; the 36 kDa dimer was retained up to 15 min and dissociated within 20-30 min
[3] = biological target: HOL-18, 18 kDa chitotriose-binding lectin from Halichondria okadai (Halichondria okadai); test: SEC; gel permeation chromatography on Superdex 75 (1.0 x 32 cm), HPLC, 0.5 mL/min, 20 ug purified lectin, native conditions, calibrated with marker proteins
[4] = biological target: HOL-18, 18 kDa chitotriose-binding lectin from Halichondria okadai (Halichondria okadai)

## HOL-18, 18 kDa chitotriose-binding lectin from Halichondria okadai (natural protein)
[1]
  Kd: 4.4 µM
  koff: 0.0061 s⁻¹
  kon: 1400 M⁻¹ s⁻¹
[2]
  stoichiometry N: 2
[3]
  stoichiometry N: 4

## bovine submaxillary mucin (natural protein)
[4]
  minimum inhibitory concentration of the hemagglutination of human type A erythrocytes by HOL-18 (16 HA units): 125 µg/mL

## porcine stomach mucin (natural protein)
[4]
  minimum inhibitory concentration of the hemagglutination of human type A erythrocytes by HOL-18 (16 HA units): 10 µg/mL

B1: fetuin (natural protein)
chain: IPLDPVAGYKEPACDDPDTEQAALAAVDYINKHLPRGYKHTLNQIDSVKVWPRRPTGEVYDIEIDTLETTCHVLDPTPLANCSVRQQTQHAVEGDCDIHVLKQDGQFSVLFTKCDSSPDSAEDVRKLCPDCPLLAPLNDSRVVHAVEVALATFNAESNGSYLQLVEISRAQFVPLPVSVSVEFAVAATDCIAKEVVDPTKCNLLAEKQYGFCKGSVIQKALGGEDVRVTCTLFQTQPVIPQPQPDGAEAEAPSAVPDAAGPTPSAAGPPVASVVVGPSVVAVPLPLHRAHYDLRHTFSGVASVESSSGEAFHVGKTPIVGQPSIPGGPVRLCPGRIRYFKI
modifications: O-linked oligosaccharides and sialyl N-acetyllactosamine (Neu5Acα2-3/6Galβ1-4GlcNAc) chains in complex-type N-linked glycans
[4]
  minimum inhibitory concentration of the hemagglutination of human type A erythrocytes by HOL-18 (16 HA units): 125 µg/mL
